Here are results for seven molecules from paper PMC8215385, “Design of a Proteolytically Stable Sodium-Calcium Exchanger 1 Activator Peptide for In Vivo Studies” (Frontiers in Pharmacology, 2021).

Non-standard residues stand in square brackets, D forms with d. No end group written: not given here. *: point of attachment. Biotin = O=C1N[C@H]2[C@H](CS[C@H]2CCCCC(=O)*)N1; NMePro = CN1CCC[C@H]1C(=O)*; Ahx = NCCCCCC(=O)O

As a reminder, the Kd is the constant that tells how readily two partners part at equilibrium. In general, koff refers to a measure of how fast the partners let go of each other. Read a low koff as a long-lived complex. The term kon denotes the second-order rate constant of association. Read a low kon as slow association.

The labels stand for the following.
B1: biotin-ahx-pSer68-PLMcyt (peptide)
peptide: {Biotin-Ahx}-KRCRCKFNQQQRTGEPDEEEGTFRSSIRRLSSRRR
modifications: also: phosphoserine at Ser68 (numbering not mappable from notes)
notes: cytoplasmic part of phospholemman (PLM, FXYD1), printed as [residues removed]; Immobilised on SA chips (SPR) and used as overlay probe on the peptide arrays; also called biotin-pSer68-PLM; biotin-pSer68-PLMcyt; source: synthetic peptide (Genscript, >80% purity)

The target of test [1] is T1, pSer68-PLMcyt (Mus musculus, UniProt Q9Z239).
T1 construct: purchased Genscript; host or cells: synthetic peptide
T1 sequence (Q9Z239 58-92 limits assumed): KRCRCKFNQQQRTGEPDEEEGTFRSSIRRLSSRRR
Kind of test: Peptide array overlay with biotin-pSer68-PLM. It counts as binding. Conditions: membrane-synthesized peptides overlaid with 5 μM biotin-pSer68-PLM, anti-biotin-HRP. The source says:
Peptides on cellulose membranes were synthesized using a Multipep automated peptide synthesizer (INTAVIS Bioanalytical Instruments AG, Koeln, Germany) ([Frank, 1992], [Frank, 2002]). Peptides in solution were synthesized (listed below) at >80% purity by Genscript (Corporation, Piscataway, NJ, United States). For some of the peptides a cell-permeable TAT ([…]) or a biotin tag was included at either N- or C-terminus with or without an ahx-linker in between to avoid any potential steric hindrance.
Peptide array membranes were blocked in 1% casein for 2–4 h and overlaid with 5 μM of biotinylated pSer68-PLM peptide in 1% casein overnight at 4°C. The membranes were then washed three times for 10 min in TBS-T before incubation with anti-biotin-horseradish peroxidase (HRP) for 1 h (see Antibodies and Recombinant Protein). Peptide-bound spots were detected as described in the immunoblotting section.

Test [2] deals with biotin-ahx-PLMcyt. Kind of test: SPR; Biacore X100; biotinylated pSer68-PLMcyt or PLMcyt immobilised on SA chip (~50-200 RU); His-TF-NCX1cyt dialysed into running buffer injected at a range of concentrations (single cycles), 30 or 100 ul/min, 180 s, dissociation 600 s; 1:1 (Langmuir) fit. For orientation: In SPR one partner is held on a chip, and binding of the other changes the refractive index at the surface.

Test [3] deals with B1. The test is described as above.
For test [4], the system named is adult mouse cardiomyocytes. The experiment in a line: Ca2+ transients and SR Ca2+ load in isolated adult cardiomyocytes. Type of test: cell-based. Conditions: 1 μM, vs scrambled control. As to the method: (§1) 8 weeks old C57BL6/J mice were randomized to SHAM or an aortic banding (AB) operation using o-rings (ORAB) as previously described ([Melleby et al., 2018]). Mice were anesthetized in a combination of 5% isoflurane and 95% O2, before endotracheal intubation and ventilation using a MiniVent rodent ventilator (Harvard Apparatus, United States). Left sided hemothoracotomy in the third intercostal space was performed, before dissection and placement of the o-ring around the ascending aorta. Animals were allowed to recover, and post-operative analgesia was achieved by injections of buprenorphine in accordance with the institutional guidelines. Animal experiments was approved by the Norwegian National Animal Research Committee (FDU 7040).
Cardiomyocytes were isolated based on a similar protocol as recently described ([Ackers-Johnson et al., 2016]). Mice were anesthetized and mask ventilated with a combination of 3% isoflurane and 97% O2. Deep surgical anesthesia was confirmed by abolished pain reflexes. […] Then 7 ml of buffer A (in mM: HEPES 25, NaCl 130, KCl 5.4, NaH2PO4 0.4, MgCl2 0.5, D-glucose 22, pH 7.4) with 5 mM EDTA was injected into the right ventricle. Thereafter, the aorta was clamped and the heart was excised. 10 ml of the buffer solution and thereafter 3 ml of the buffer solution without EDTA were injected into the left ventricle over 2–5 min. Then preheated solution A containing 0.8 mg/ml collagenase II was injected into the left ventricle over ∼20 min. The atria and right ventricle were removed, and the cardiomyocytes were isolated according to the same procedure as described for the Langendorff-based isolation of rat cardiomyocytes (described further below).
Isolated cardiomyocytes were loaded for 10 min with 5 μM fluo-4 AM ester (Molecular Probes, Eugene, OR, United States) at RT. The superfusate contained (mM): NaCl 140, HEPES 5, KCl 5.4, CaCl2 1, MgCl2 0.5, D-glucose 5.5 and NaH2PO4 0.4. The pH was adjusted to 7.4. […] Whole-cell Ca^2+ transients were recorded in field stimulated cardiomyocytes at 0.5 Hz (2.5 ms bipolar pulses) and 37°C with Cairn Research Optoscan Monochromator (excitation 485 nm, emission 515 nm long pass) (Cairn Research Ltd., United Kingdom). Regular Ca^2+ transients were recorded for at least 3 min per cell, before the field stimulation was stopped and 10 mM caffeine was added. Background fluorescence was recorded for each cell. Ca^2+ transients amplitude and SR Ca^2+ load was calculated as maximal fluorescence (F) divided on resting fluorescence (F0) on field stimulated and caffeine evoked Ca^2+ transients, respectively (See Figure 4I for illustration of protocol details). […] The NCX rate constant was calculated as: 1/τcaff ([Díaz et al., 1997]), as the non SERCA2, non-NCX mediated Ca^2+ removal was considered negligible.

The test system of test [5] is NCX1. The experiment in a line: NCX activity (NCX rate constant, 1/τcaff) in isolated adult cardiomyocytes. Type of test: cell-based, mouse. The conditions noted are these: 1 μM, vs TAT-tagged scrambled control. How it is done: as §1, with “Animal experiments was approved by the Norwegian National Animal Research Committee (FDU 7040).” left out
Isolated cardiomyocytes were loaded for 10 min with 5 μM fluo-4 AM ester (Molecular Probes, Eugene, OR, United States) at RT. […] Whole-cell Ca^2+ transients were recorded in field stimulated cardiomyocytes at 0.5 Hz (2.5 ms bipolar pulses) and 37°C with Cairn Research Optoscan Monochromator (excitation 485 nm, emission 515 nm long pass) (Cairn Research Ltd., United Kingdom). Regular Ca^2+ transients were recorded for at least 3 min per cell, before the field stimulation was stopped and 10 mM caffeine was added. Background fluorescence was recorded for each cell. […] The NCX rate constant was calculated as: 1/τcaff ([Díaz et al., 1997]), as the non SERCA2, non-NCX mediated Ca^2+ removal was considered negligible.

Test [6] concerns the target T2, OPT with three amino acids deleted at its N-terminus.
T2 construct: source: synthetic peptide, spot-synthesised on cellulose membrane
T2 peptide: YKEIEQLIELANYQVLS
The experiment in a line: peptide or protein array; peptides spot-synthesised on cellulose membranes, blocked in 1% casein, overlaid with 5 uM biotinylated pSer68-PLM peptide in 1% casein overnight at 4°C; detected with anti-biotin-HRP. Conditions: both partners purified.

The target in test [7] is T3, mini-OPT.
T3 construct: residues 3-18 of OPT; source: synthetic peptide, spot-synthesised on cellulose membrane
T3 peptide: PYKEIEQLIELANYQV
Described as above. Conditions: both partners purified.

Test [8] deals with T4, OPT with two amino acids deleted at its C-terminus.
T4 construct: C-terminus'; source: synthetic peptide, spot-synthesised on cellulose membrane
T4 peptide: YHPYKEIEQLIELANYQV
The test is described as above. The conditions noted are these: both partners purified.

Test [9] deals with B1. Kind of test: SPR. The conditions noted are these: both partners purified.

As for “E6G: E6G substitution of mini-OPT on the peptide array; negative control in pull down (PYKEIGQLIELANYQV)”, the “pSer68-PLM binding on peptide array” value in test [1] is recorded as “abolished pSer68-PLM binding”.
In test [2], HIS-TF-NCX1cyt (domain or fragment) registered a Kd of 4.1 nM, a koff of 0.004 s⁻¹ and a kon of 1.1e+06 M⁻¹ s⁻¹. In [3], this molecule returned a dissociation constant (Kd) of 4.3 nM, a koff of 0.0011 s⁻¹ and a kon of 380000 M⁻¹ s⁻¹.
As to “NOPT-TAT: NOPT made cell permeable by addition of a TAT tag to its C-terminus ([NMePro]YKEIEQLIELANYQVRKKRRQRRR)”, the “Ca2+ transient amplitude” value in [4] (HF cardiomyocytes) and in [4] (SHAM cardiomyocytes) was “did not change” in each case. Moreover, the “sarcoplasmic reticulum (SR) Ca2+ load” value in [4] (HF cardiomyocytes) and in [4] (SHAM cardiomyocytes) was “did not change” each time. The “increase of NCX1 activity (NCX1 rate constant)” value is “approximately 40%” in test [5] (cardiomyocytes from SHAM-operated mice, 10–13 cells from three mice) and “approximately 60%” in test [5] (cardiomyocytes from aorta banded HF mice, 6–7 cells from three mice).
PYKEIEQLIELANYQV [mini-OPT]: the “pSer68-PLM binding on peptide array” value in test [1] is reported as “minimum sequence that was required to bind pSer68-PLMcyt”.
As to “Y14A: Y14A substitution of mini-OPT on the peptide array; negative control in pull down (PYKEIEQLIELANAQV)”, the “pSer68-PLM binding on peptide array” value in test [1] is on record as “abolished pSer68-PLM binding”.
For the molecule B1, the binding result in test [6], in test [7] and in test [8] was “binds” each time.

B2: NOPT-TAT (peptide)
peptide: [NMePro]YKEIEQLIELANYQVRKKRRQRRR
notes: also called TAT-conjugated NOPT; cell-permeable NOPT; source: synthetic peptide (Genscript, >80% purity)
Consider B2, for which the Kd in test [9] was 129 nM.
